From the supplement of paper PMC11136658

Tested on: peptide library, one residue held at a place counted from the Y acceptor
Test: relative phosphorylation of the sub-library (ratio to the mean residue at this position); higher = residue favoured
Procedure, shortened: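 Purified recombinant kinases were incubated for 90 min in 384-well plates with biotinylated Tyr-centred peptide library mixtures, each fixing one residue at one position from −5 to +5, plus 50 μM ATP with γ-32P-ATP. Peptides were captured on streptavidin membranes, rinsed and quantified by phosphorimaging and ImageQuant. Intensities were normalized per position by the sum of the 18 (or 16, Ser/Thr-free library) randomized residues and multiplied by that number. Values give phosphorylation relative to the mean randomized residue.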

Chain of FGFR4, construct: aa442-end, human (P22455 442-802, looked up): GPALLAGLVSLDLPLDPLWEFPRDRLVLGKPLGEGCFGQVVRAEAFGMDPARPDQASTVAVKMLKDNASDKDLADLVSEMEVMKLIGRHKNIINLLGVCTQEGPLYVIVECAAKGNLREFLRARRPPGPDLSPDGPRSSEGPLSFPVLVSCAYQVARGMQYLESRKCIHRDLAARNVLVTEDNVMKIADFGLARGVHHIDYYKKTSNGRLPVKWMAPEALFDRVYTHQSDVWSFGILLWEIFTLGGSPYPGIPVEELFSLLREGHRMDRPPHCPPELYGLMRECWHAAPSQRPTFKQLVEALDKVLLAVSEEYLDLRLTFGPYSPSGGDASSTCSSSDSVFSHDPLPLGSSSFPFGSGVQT

FGFR4, construct: aa442-end, human (from UniProt P22455)
relative phosphorylation
Conditions | at +1 | at +2 | at +3 | at +4 | at +5 | at -1 | at -2 | at -3 | at -4 | at -5
A fixed | 0.811 | 0.623 | 0.572 | 0.823 | 2.94 | 0.585 | 1.06 | 0.944 | 1.14 | 1.01
D fixed | 0.352 | 1.4 | 0.818 | 1.14 | 0.931 | 2.54 | 1.38 | 1.84 | 1.64 | 1.42
E fixed | 0.566 | 2.01 | 0.647 | 1.39 | 0.71 | 2.03 | 1.75 | 2.52 | 2.01 | 1.38
F fixed | 1.94 | 1.17 | 1.42 | 0.906 | 1.21 | 0.91 | 0.593 | 0.712 | 0.88 | 0.793
G fixed | 0.379 | 0.43 | 0.621 | 1.21 | 0.692 | 0.401 | 1.08 | 1.09 | 1.22 | 1.31
H fixed | 1.55 | 0.88 | 0.767 | 1.13 | 0.954 | 0.985 | 1.05 | 1 | 0.977 | 1.08
I fixed | 1.8 | 1.21 | 2.44 | 0.869 | 0.75 | 1.89 | 0.902 | 0.626 | 0.732 | 0.929
K fixed | 0.29 | 0.37 | 0.27 | 0.602 | 0.913 | 0.311 | 0.693 | 0.614 | 0.699 | 0.845
L fixed | 1.25 | 1.05 | 2.03 | 0.841 | 0.922 | 1.12 | 0.839 | 0.639 | 0.808 | 0.898
M fixed | 1.53 | 1.1 | 1.53 | 1.07 | 0.841 | 0.828 | 0.681 | 0.834 | 0.767 | 0.908
N fixed | 0.341 | 1.04 | 0.425 | 0.873 | 0.832 | 1.03 | 1.05 | 1.25 | 1.03 | 1.1
P fixed | 0.49 | 0.708 | 0.891 | 1.37 | 0.769 | 0.65 | 1.19 | 0.862 | 1.1 | 1.17
Q fixed | 0.678 | 0.705 | 0.524 | 0.94 | 0.927 | 0.646 | 1.11 | 0.901 | 1.07 | 1.03
R fixed | 0.458 | 0.535 | 0.364 | 0.781 | 0.865 | 0.292 | 0.657 | 0.73 | 0.667 | 0.866
S fixed | 0.799 | 0.864 | 0.579 | 0.938 | 0.916 | 0.467 | 1.07 | 1.07 | 0.849 | 0.856
T fixed | 0.807 | 0.934 | 0.686 | 0.88 | 0.625 | 0.966 | 1 | 0.883 | 0.644 | 0.807
V fixed | 1.74 | 1.2 | 1.92 | 0.817 | 0.81 | 1.38 | 1.25 | 0.683 | 0.741 | 0.779
W fixed | 2.22 | 1.77 | 1.5 | 1.43 | 1.4 | 0.952 | 0.639 | 0.794 | 1.02 | 0.811
pThr fixed | 0.826 | 1.95 | 0.731 | 1 | 0.75 | 1.29 | 1.3 | 1.84 | 1.85 | 1.29
pTyr fixed | 3.85 | 6.17 | 1.24 | 1.34 | 0.82 | 7.16 | 1.79 | 2.69 | 2.45 | 1.36
